Assay results: patent US9296786B2, “Shortened secreted polypeptides” (TWO TO BIOTECH LTD., priority 2009, dated 2016)

Assays:
[1] = Effect of PRT6 administration on blood serum testosterone level (R&D Systems Testosterone Immunoassay); format: in vivo, Balb/C mice
Method: Two groups of Balb/C mice were used: • 3-4 week-old male Balb/C—Negative control for testosterone—18 mice • 7-8 week-old male Balb/C mice—18 mice
Each group was divided into 3 sub-groups (6 mice each). Each group was injected every day for a 4 day-period with 200 μl of one of the following: • 4% DMSO in double-distilled water (DDW) • 0.5 μg/kg of PRT6 (diluted in DDW) • 5 μg/kg of PRT6 (diluted in DDW)
After 4 days, blood serum was extracted from the mice and tested for testosterone levels. Testosterone measurement was done using the R&D Systems Testosterone Immunoassay (R&D Systems Catalog Number KGE010). This assay is based on the competitive binding technique. A monoclonal antibody specific for testosterone binds to the goat anti-mouse antibody coated onto the microplate. Following a wash to remove excess monoclonal antibody, testosterone present in the sample competes with a fixed amount of horseradish peroxidase (HRP)-labeled testosterone for sites on the monoclonal antibody. This is followed by another wash to remove excess conjugate and unbound sample. A substrate solution is added to the wells to determine the bound enzyme activity. Color development is stopped, and absorbance is read at 450 nm. The intensity of the color is inversely proportional to the concentration of testosterone in the sample.

[2] = IPGTT in mice treated with streptozotocyn (STZ), after 4-5 weeks of peptide treatment; format: in vivo, C57B1/6 mice; details: STZ-treated C57B1/6 male mice; PRT8 100 μg/mice; sbPRT8 20, 100 or 300 μg/mice; 4 or 5 weeks of treatment; sbPRT8 compared with PRT8
Text: In the following experiments, a sbPRT8 peptide blocked with an acetyl moiety at the N-terminal end and an amide moiety (NH2) at the C-terminal end has been employed. The effect of sbPRT8 administration on glucose levels was examined and compared to the effect obtained with PRT8 in mice treated with streptozocin (STZ). As known in the art, STZ is a chemical compound that is particularly toxic to the insulin-producing beta cells of the pancreas in mammals. It is used in medicine for treating certain cancers of the Islets of Langerhans and used in medical research to produce an animal model for Type 1 diabetes as well as Type 2 diabetes.
(§1) C57B1/6 males mice were purchased from Harlan Laboratories Ltd., Jerusalem, Israel, After 7 days of rest, mice were IP injected with 50 mg/kg STZ for 4 days. Five days after STZ injection, mice were treated as follows: • Group A (control)—100 μg/mice of PRT8 (control) • Group B (treatment)—20 μg/mice of sbPRT8 (treatment 1) • Group C (control)—100 μg/mice of sbPRT8 (treatment 2)
After 5 weeks of treatment mice were starved for food only for 12 h and then were IP injected with […] of glucose solution (IPGTT). The level of glucose in mice blood was measured with Accucheck glucometer (Roche) at t=0, 15, 30, 60, 90 and 120 minutes following glucose injection.
as §1, with “Jerusalem, Israel.” for “Jerusalem, Israel,”, “B (treatment)—100” for “B (treatment)—20”, “C (control)—300” for “C (control)—100”
After 4 weeks of treatment mice were starved for food only for 12 h and then were IP injected with […] of glucose solution (IPGTT). The level of glucose in mice blood was measured with Accucheck glucometer (Roche) at t=0, 15, 30, 60, 90 and 120 minutes following glucose injection.

[3] = Effect of PRT5 administration on glucose levels after glucose injection in starved mice; format: in vivo, C57B1 mice; details: starting 2 days and up to 4 days after injection; 2 mg/kg glucose after overnight starvation
Method: The mice were divided into 4 groups. The first group was starved and checked for blood glucose levels (using an Accu-Chek® Performa device, Roche Diagnostics) one day after injection; the second group—two days after injection, the third group—three days after injection and the fourth group—four days after injection. Starvation was done overnight (the night before glucose injection), and the next day 2 mg/kg of glucose was injected to each mouse. A time course analysis of glucose levels was performed with glucose levels checked at t=0, 30, 90, 120, 150 and 240 minutes.

insulin receptors = experiment: Levels of insulin receptors in skeletal muscle of mice treated with PRT5; format: in vivo; details: data not shown
p53 = experiment: Induction of p53 expression by PRT7 (data not shown)
[4] = Effect of PRT8 administration on glucose levels after glucose injection in starved mice; format: in vivo, C57B1 mice; details: 1 μg/kg or 10 μg/kg PRT8
Method: All the mice were injected with PRT8 (or saline) on day 1. The first group was starved on day 2 and checked for blood glucose levels (using an Accu-Chek®Performa device, Roche Diagnostics) on day three. The second group was starved and checked for blood glucose levels three days after injection. Starvation was done overnight (the night before glucose injection), and the next day 2 mg/kg of glucose was injected to each mouse. A time course analysis of glucose levels was performed with glucose levels checked at t=0, 30, 60 and 120 minutes following glucose injection.

PRT6: novel chemokine-like secreted polypeptide from human cDNA libraries, amino acid sequence SEQ. ID. NO. 2 (MPPFSVGLVVVVNVVCLMLYESTTILRLYGIILFMRDLKLEVEDAKITIALALRNS; listed as Homo sapiens)
testosterone levels in blood serum ([1]; 0.5 μg/kg or 5 μg/kg PRT6 daily for 4 days, male Balb/C): significant increase
effect on testosterone levels of 5 μg/kg compared with 0.5 μg/kg ([1]; 5 μg/kg vs 0.5 μg/kg PRT6, daily for 4 days): much more pronounced

PRT8 C-ter: PRT8 fragment, sequence LLVSLYPA (listed as Homo sapiens)
reduction of blood glucose level (IPGTT) [2]: no significant blood glucose reduction

PRT8 N-ter: PRT8 fragment, sequence SHLFGSFAWN FLLSS (SHLFGSFAWNFLLSS; listed as Homo sapiens)
reduction of blood glucose level (IPGTT) [2]: no significant blood glucose reduction

sbPRT8: shortened C-terminal fragment of PRT8, sequence KPETCPGLLV SLYPA (KPETCPGLLVSLYPA; listed as Homo sapiens)
reduction of blood glucose level (IPGTT) [2]: very significant improvement

B1: PRT5: novel chemokine-like secreted polypeptide from human cDNA libraries, amino acid sequence SEQ. ID. NO. 1 (protein, listed as Homo sapiens)
chain: MKPMERWWSRALFTTCPVGPSGCAAGLLWPRNTDARSPLHSQTLWVCSWAALAQKHRCTVTPAQPAP
glucose levels compared with mice administered saline [3]: significantly lower
levels of insulin receptors in skeletal muscle (insulin receptors): capable of increasing the levels of insulin receptors

B2: PRT7: novel chemokine-like secreted polypeptide from human cDNA libraries, amino acid sequence SEQ. ID. NO. 3 (protein, listed as Homo sapiens)
chain: MGMIVPPSLAAAGGASTTPRLHALRLTSLLHQHLDLCLHPSPLPTPPSAPCLSGLVPPDSSLSVLDTLQV
expression of p53 (p53): can induce the expression of p53

B3: PRT8: novel chemokine-like secreted polypeptide from human cDNA libraries, amino acid sequence SEQ. ID. NO. 4; full length PRT8 peptide (protein, listed as Homo sapiens)
chain: MLVFLKLWPQCLFFALTFFLRNCIYFKDFLSHLFGSFAWNFLLSSRSMDPTSCWTAPIWRSHRPLNSAPVSESPNYPLFTWSLKPETCPGLLVSLYPA
reduction of blood glucose level (IPGTT) [2]: significant reduction
glucose levels compared with mice administered saline ([4]; starting 2 days after administration, 2 mg/kg glucose after overnight starvation): significantly lower
glucose-lowering effect three days following injection compared with two days ([4]; three days following PRT8 injection): more evident
